Biological target: MBP-ZAT10 (Arabidopsis thaliana, UniProt Q96289 1-227)
Assay: EMSA; 2 ug protein in 20 uL; EMSA/gel-shift binding 5x buffer (Beyotime; composition not stated), 20 uL, 25 C, 30 min, 12% native PAGE; protein eluted in 20 mM Tris-HCl, 100 mM NaCl, 10 mM
Settings: protein: recombinant; tags: N-terminal MBP (pMAL-c4X); blunt

Sequence of MBP-ZAT10 (Q96289 whole entry): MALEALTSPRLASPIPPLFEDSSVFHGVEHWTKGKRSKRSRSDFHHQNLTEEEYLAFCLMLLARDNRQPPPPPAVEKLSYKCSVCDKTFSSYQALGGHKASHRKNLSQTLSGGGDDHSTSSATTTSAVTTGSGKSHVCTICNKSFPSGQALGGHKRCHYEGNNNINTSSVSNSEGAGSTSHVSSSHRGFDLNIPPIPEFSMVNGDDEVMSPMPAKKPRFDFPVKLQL

B1: ZAT10 promoter probe (P) (dsDNA)
DNA 1: ATCGCCACCTTCACTCTTCACACTTTCCTACCACTTGTCACGCAACTT
DNA 2: AAGTTGCGTGACAAGTGGTAGGAAAGTGTGAAGAGTGAAGGTGGCGAT
B1: binds.

— PMC9468636, “ZAT10 plays dual roles in cadmium uptake and detoxification in Arabidopsis”
